Experimental data from the nanobody polyreactivity screen of Harvey et al. (2022).

Experiment: yeast display, Sf9 membrane polyspecificity reagent, FACS + sequencing; frameworks hold sequencing errors
Procedure, shortened: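 Nanobodies from a synthetic yeast display library (Saccharomyces cerevisiae BJ5465), induced 36–48 hours with galactose, were stained 1 hour at 4 °C with 10% biotinylated, detergent-solubilized Sf9 membrane reagent, enriched on streptavidin microbeads, then FACS-sorted. Anti-HA (expression) and streptavidin (reagent binding) fluorescence set low and high (top ~1%) gates. Polyreactivity labels come from the gate of origin. Genes were colony-PCR amplified, MiSeq 2 × 250 sequenced and filtered by CDR length.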

Sequence	polyreactivity (PSR sort gate)
QVQLVESGGGLVQAGGSLRLSCAASGRIFDSNAMGWYRQAPGKERELVAYITSGGRTYYADSVKGRFTISRDNAKNTVYLQMNSLKAEDTAVYYCAVRSYKRGPLDYWGQGTQVTVSS	high polyreactivity
QVQLVESGGGLVQAGGSLRLSCAASGSTLYDYAMGWYRQAPGKERELVAAINGSGGSTYYADSVKGRFTISRDNAKNTVYLQMNSLKPEDTAVYYCAAATTHRRRYGYWGQGTQVTVSS	low polyreactivity
QDQLVESGGGLVQAGGSLRLSCAASGRTFYDNAMGWYRQAPGKERELVAAITWRGGGTYYADSVKGRFTISRDNAKNTVYLQMNSLKPEDTAVYYCAADSSGTGFYAYTDGEEKYSWGQGTQVTVSS	high polyreactivity
QVQLVESGGGLVQAGGSLRLSCAASGSIFTYNAMGWYRQAPGKERELVAAISSRGTSTYYADSVKGRFTISRDNAKNTVYLQMNSLKPEDTAVYYCAAVWVSQRRPWGNTNNYWGQGTQVTVSS	high polyreactivity
QVQLVESGGGLVQAGGSLRFSCAASGSTFLSNAIGWYRLAPGKERELVAAISIGGGRTYYADSVKGRFTISRDNAKNTVYLQMNSLKPEYTAVYYCNAVGRHTDAYHYDYWGQGTQVTVSS	high polyreactivity
QVQLVESGGGLVQAGGSLRLSCAASGRIFYLYAMGWYRQAPGKERELVAAITWSGGSTTYADSVKGRFTISRDNAKNTVYLQMNSLKPEDTAVYYCNADGWIFPSFSPMDYWGQGTQVTVSS	low polyreactivity
QVQLVESGGGLVQAGGSLRLSCAASGGTFSRNAMGWYRQAPGKERELVAAITSGGRTNYADSVKGRFTISRDNAKNTVYLKMNSLKAEDTAVYYCAARKGKETLYHSTPPYYYWGQGTQVTVSS	high polyreactivity
QVQLVESWGGLVQAGGSLRLSCAASGSIFGENAMGWYREAPRKEMELVAAITSGGSTDYADSVKGRFTISRDNAKNTVYLQMNSPKVEDTAVYYCAASGRVGPGYCYDSWGQGTQVTVSS	low polyreactivity
QVQLVESGGGLVQAGGSLRLSCAASGITFRYYAMGWYRQAPGKERELVATITRGGSTYYADSVKGRFTISRDNAKNTVYLQMNSLKPEDTAVYYCAARQWYRYKVRFDYWGQGTQVTVSS	high polyreactivity
QVQLGESGGGLVQAGGSLRLICAASGSTFWTNDMGWYRQAPGKERELVAPISQSAGDTYYADSVKARFTISRDNSKNTFYLQMISLKPEDTAVYYCAADLVFYPFTWDGYYYWGQGTQVTVSS	low polyreactivity
QVQLVESGGGLVQAGGSLRLSCAASARILAYYAMGWYRQAPGKERELVAAITSGGRTYYADSVKGRFTISRDNAKNTVYLQMNSLKPEDTAVYYGAVRWYPRYGSRYDYWGQGTQVTVSS	high polyreactivity
QVQLVESGGGLVQAGGSLRLSCAASGSIFGRNALGWSRQAPGKERELVAAIRDSGTSTYYADSVKGRFTISRDNAKNTVYLQMNSLKPEDTAVYYCAASRRPGYTYGYWGQGTQVTVSS	high polyreactivity
QVQLVESGGGIVQAGGSLRLSCAASGSSFWRNTMGWYRQAPGKERELVAGISSTGTSTYYADSVKGRFTISRDNAKNTVYLQMNSLKPEDTAVYYCAAAYRNRKYDYWGQGTQVTVSS	high polyreactivity
QVQLVESGGGLVQAGGSLRLSCSASGRTFRWYTMGWYRQAPGKEREFVAAITWSGSSTDYADSVKGRFTISRDNAKNTVYFQMNSLKPEDTAVYYCAAENRRRRDDYWGQGTQVTVSS	high polyreactivity
QDQLVESGGGLVQAGGSLRLSCAASGSTFRRYDMGWYRQAPGKERELVAAISHRTGRTSYADSVKGRFTISRDNAKNTVYLQMNSLKTEDTAVYYCAADHTYYRQGYDYWGQGTQVTVSS	high polyreactivity
QGQLVESGGGLVQAGGSLRLSCAASGTTFTKYAMGWYRPAPGKERELVATISQSSGRTYYADSVKRRFTISRDNAKNTVYLQMNTLKPEDTAVYYCAARYGYAVYYYGTPVRRYYYWGQGTQVTVSS	high polyreactivity
QVQLVESGGGLVQAGGSLRLSCAASGSIFGYYVMGWYRPAPGKERELVAGISYSGGRTYYADSVKGRFTISRDNAKNTVYLQMNSLQPEDTAVYYCAAEGTTSWWVKYGYWGQGTQVTVSS	low polyreactivity
QVQLEESGGGLVQAGGSLRLSCAASGSTFEVYAMGWYRQAPGKERELVAVINVSDGSTYYADSVKGRFTISRDYAKNTVYLQMNSMKPEDTAVYYCADYLYNRPYQLTGYYDGYGYWGQGTQVTVSS	low polyreactivity
QVQLVESGGGLVQAGGSLRLSCAASGRTSEIYTMGWYRQAPGKERELVASINTNYADSVKGRFTISRDNAKNTVYLQMNSLKPEDTAVYYCNADDTIEFNYWGQGTQVTVSS	low polyreactivity
QVQLVESGGGLVQAGGSLRLSCAASGFTLYYYTMGWYRQAPGKERELVAAITSGGDTYYADSVKGRFTISRDNAKNTVYLQMNSLKPEDTAVYYCDAKKKYHYVASYKRFEYWGQGTQVTVSS	low polyreactivity
QVQLVESGGGLVQAGGSLRLSCAASGSTFQTYAMGWYRQAPGKERELVAAITYGGSTNYADSVKGRFTMSRANAKNTVYLLMNSLKPEDTAVYYCAARDGDQRPRLRYDYWAQGTQVTVSS	low polyreactivity
QVQLVESGGGLVQAGGSLRLSCAASGYTFPSNAMGWYRQAPGKERDWVAAISSGGRTNYADSVKGRFTISRDNAKNTVYLQMNSLKPEDTAVYYCNADGGPGYPRAYDYWGQGTQVTVSS	low polyreactivity
QVQLVESGGGLVQAGGSLRLSCAASGSIFGAYTMGWYRQAPGKEREFVAVISKGGTNTYYADSVKGRFTISRDNAKNTVYLQMNSLKPEDTAVYYCAARAYPTWRTYYYWGQGTQVTVSS	high polyreactivity
QVKLVESGGCLVQAGGSLRLSCAASGRTIGYYGMGWYRQAPGKARELVAAITGSGGSTYYADSVKGRFTISRDNSKNTVYLQMNILIPEDTAVYYCAATYLSRWTLYDYWGQGTQVTVSS	high polyreactivity
QVQLVESGGGLVQARGSLRLSCAASGIIFSTYAMGWYRQAPGKERELVAAISASGVRTYYADSVKGRFTISRDNAKNTVYLQMNSLKPEDTAVYYCAVRGYPYLRYYWGQGTQVTVSS	high polyreactivity
QVQLVESRGGLVQAGGSLRLSCAASGFTFRLYAMGWSRQAPGKERELVAALTGRGGNTYYADSVMGRFTISRDNAKNTVYLQRNSLNPEDTAVYYCNRYTQWVGYDYWGQGTQVTVSS	high polyreactivity
QVQLVESGGGLVQAGGRLRLSCAASGRTFYYYAMGWYRQAPGKERELVAAISWSGGRTYYADSVKGRFTISRDNAKNTVYLQMNSLKPEDTAVYYCNAETAAAQASYDRLDVLLDYWGQGTQVTVSS	low polyreactivity
QVQLVESGGGLVQAGGSLRLSCAASGSTFEDYAMGWYTQAPGKERELVAAINKTGGSTNYADSVKGRFTISRDNAKNTVYLQMNSLKPEDTAVYYCAADGSNYSASVAAFPYRVVYWGQGTQVTVSS	low polyreactivity
QVQLVESGGGLVQAGGSLRLSCAASGSIFSRNAMGWYRQAPGKERELVAAITWSGGSTYYADSVKGRFTISRDNAKNTVYLQMNSLKPEDTAVYYCNAKRSSRIKQLEYDYWGQGTQVTVSS	high polyreactivity
QVQLEESGGGLVQAGGSLRLSCAASGRIFWYYDMGWYRQAPGKERELVAAISQRGGSTYYADSVKGRFTISRDNAKNTVYLQMNSLKAEDTAVYYCAKRNPYWATREYWGQGTQVTVSS	high polyreactivity
